From PMC3656037

Test system: Sau-PolC-ΔNΔExo (Staphylococcus aureus)
Assay: active site titration (pre-steady-state burst amplitude vs DNA, quadratic fit)
Conditions: Reaction buffer, salt, pH and temperature not given in the material; DNA annealed in 10 mM Tris-HCl pH 8, 1 mM EDTA, 100 mM NaCl; protein stored in 50 mM …

Q: For primer/template (p/t) DNA, which Kd is on record?
A: The Kd was 390 nM.
